Results as given in PMC9482095.
Like-named read-outs stand apart in the source and are kept apart here.

Tests used:
FOXO1 FKH wt [1] = target: T1, FOXO1 FKH wt (UniProt Q12778 151-265); assay: EMSA
FOXO1 FKH wt [2] = target: T1, FOXO1 FKH wt; assay: EMSA; remark: listed apart in the source

Row | Binder | Kd (FOXO1 FKH wt [1]) [nM] | Kd (FOXO1 FKH wt [2]) [nM]
1 | dsIRE (dsDNA) DNA 1: TAAGCTAGTGGTTTGTTTTGCTTGCTAGCAAT DNA 2: ATTGCTAGCAAGCAAAACAAACCACTAGCTTA | 200 ± 70 | –
2 | dsDBE2 (dsDNA) DNA 1: TAAGCTAGTCTTGTTTACATTTTGCTAGCAAT DNA 2: ATTGCTAGCAAAATGTAAACAAGACTAGCTTA | – | 90
